B1: HSA [K317E/M329V/K372E/F377I/I388T/A552V/G572R] (clone 3.9), membrane-tethered on CHO cells (other)
chain: DAHKSEVAHRFKDLGEENFKALVLIAFAQYLQQCPFEDHVKLVNEVTEFAKTCVADESAENCDKSLHTLFGDKLCTVATLRETYGEMADCCAKQEPERNECFLQHKDDNPNLPRLVRPEVDVMCTAFHDNEETFLKKYLYEIARRHPYFYAPELLFFAKRYKAAFTECCQAADKAACLLPKLDELRDEGKASSAKQRLKCASLQKFGERAFKAWAVARLSQRFPKAEFAEVSKLVTDLTKVHTECCHGDLLECADDRADLAKYICENQDSISSKLKECCEKPLLEKSHCIAEVENDEMPADLPSLAADFVESKDVCENYAEAKDVFLGVFLYEYARRHPDYSVVLLLRLAKTYETTLEKCCAAADPHECYAEVFDEIKPLVEEPQNLTKQNCELFEQLGEYKFQNALLVRYTKKVPQVSTPTLVEVSRNLGKVGSKCCKHPEAKRMPCAEDYLSVVLNQLCVLHEKTPVSDRVTKCCTESLVNRRPCFSALEVDETYVPKEFNAETFTFHADICTLSEKERQIKKQTALVELVKHKPKATKEQLKAVMDDFVAFVEKCCKADDKETCFAEERKKLVAASQAALGL
notes: not shown: Myc tag and PDGFR transmembrane domain
B2: mouse FcRn/β2m, soluble recombinant (receptor)
chain: SETRPPLMYHLTAVSNPSTGLPSFWATGWLGPQQYLTYNSLRQEADPCGAWMWENQVSWYWEKETTDLKSKEQLFLEALKTLEKILNGTYTLQGLLGCELASDNSSVPTAVFALNGEEFMKFNPRIGNWTGEWPETEIVANLWMKQPDAARKESEFLLNSCPERLLGHLERGRRNLEWKEPPSMRLKARPGNSGSSVLTCAAFSFYPPELKFRFLRNGLASGSGNCSTGPNGDGSFHAWSLLEVKRGDEHHYQCQVEHEGLAQPLTVDLDSSARSS
b2m: IQKTPQIQVYSRHPPENGKPNILNCYVTQFHPPHIEIQMLKNGKKIPKVEMSDMSFSKDWSFYILAHTEFTPTETDTYACRVKHASMAEPKTVYWDRDM
notes: Extracellular domain inferred from 'soluble'; also called murineFcRn; murine FcRn/β2m
B3: rat FcRn/β2m, soluble recombinant (receptor)
chain: AEPRLPLMYHLAAVSDLSTGLPSFWATGWLGAQQYLTYNNLRQEADPCGAWIWENQVSWYWEKETTDLKSKEQLFLEAIRTLENQINGTFTLQGLLGCELAPDNSSLPTAVFALNGEEFMRFNPRTGNWSGEWPETDIVGNLWMKQPEAARKESEFLLTSCPERLLGHLERGRQNLEWKEPPSMRLKARPGNSGSSVLTCAAFSFYPPELKFRFLRNGLASGSGNCSTGPNGDGSFHAWSLLEVKRGDEHHYQCQVEHEGLAQPLTVDLDSPARSS
b2m: IQKTPQIQVYSRHPPENGKPNFLNCYVSQFHPPQIEIELLKNGKKIPNIEMSDLSFSKDWSFYILAHTEFTPTETDVYACRVKHVTLKEPKTVTWDRDM
notes: Extracellular domain inferred from 'soluble'

How the values were obtained:
[1] = molecular target: T1, human neonatal Fc receptor FcRn/β2m, soluble recombinant (human, UniProt P55899 24-297; P61769 21-119, alexa-488 label (Examples 2-4); minimal chemical biotinylation with Sulfo-NHS-LC-LC-Biotin (Examples 5-6)); assay: flow cytometry, labelled FcRn on CHO-displayed HSA, pH 5.4
T1 construct: Heterodimer; extracellular domain is inferred; also called hFcRn/β2M; hsFcRn
Text: (§1) Background fluorescence due to non-specific binding of the labelled FcRn to the cells was subtracted from the value obtained.

[2] = molecular target: T1, human neonatal Fc receptor FcRn/β2m, …; assay: flow cytometry, labelled FcRn on CHO-displayed HSA, pH 7.3
Text: as §1

[3] = molecular target: T2, HSA [K573Y], soluble (human, UniProt P02768 25-609); assay: SPR, FcRn over immobilised HSA, pH 6.0
[4] = molecular target: HSA [G572R], soluble (human, UniProt P02768 25-609); assay: SPR, FcRn over immobilised HSA, pH 6.0
[5] = molecular target: T3, HSA [Q522L/G572R], soluble (human, UniProt P02768 25-609); assay: SPR, FcRn over immobilised HSA, pH 6.0
[6] = molecular target: T4, HSA [A552V/G572R], soluble (human, UniProt P02768 25-609); assay: SPR, FcRn over immobilised HSA, pH 6.0
T4 construct: also called A522V/G572R

[7] = molecular target: HSA [Q522L/A552V], soluble (human, UniProt P02768 25-609); assay: SPR, FcRn over immobilised HSA, pH 6.0
[8] = molecular target: T5, HSA WT, soluble (human, UniProt P02768 25-609); assay: SPR, FcRn over immobilised HSA, pH 6.0
T5 construct: also called wild-type HSA; recombinant wild-type HSA

[9] = molecular target: T2, HSA [K573Y], soluble; assay: SPR, FcRn over immobilised HSA, pH 6.0, 1:1 model; pH 6.0
Experimental: (§2) Spot 3 of each flow cell was activated/deactivated and used for reference subtraction. The flow rate of FcRn/β2m was kept constant at 30 μL/min
(§3) A concentration range of 2 to 0.007 μM (pH6.0) and 20 to 0.078 μM (pH7.3) was used and association and dissociation phases were monitored for 180 and 600 seconds respectively.
(§4) Regeneration of the surface was performed as previously described.

[10] = molecular target: T3, HSA [Q522L/G572R], soluble; assay: as above
Experimental: as §2, §3, §4

[11] = molecular target: T4, HSA [A552V/G572R], soluble; assay: as above
Experimental: as §2, §3, §4

T1 sequence (P55899 24-297 limits assumed, chain 1 of 2): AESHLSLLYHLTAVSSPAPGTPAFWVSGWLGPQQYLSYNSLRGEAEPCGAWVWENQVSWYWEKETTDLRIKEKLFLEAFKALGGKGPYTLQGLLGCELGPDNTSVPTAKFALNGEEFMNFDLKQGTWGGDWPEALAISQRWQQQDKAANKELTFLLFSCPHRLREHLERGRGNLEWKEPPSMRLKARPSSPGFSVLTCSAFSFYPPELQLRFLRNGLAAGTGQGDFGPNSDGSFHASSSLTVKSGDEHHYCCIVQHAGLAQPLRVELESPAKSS
T1 sequence (P61769 21-119 limits assumed, chain 2 of 2): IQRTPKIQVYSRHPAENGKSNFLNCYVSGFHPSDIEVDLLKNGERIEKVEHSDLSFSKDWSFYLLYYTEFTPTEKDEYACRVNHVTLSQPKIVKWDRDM

| Binder | fold change to WT [1] [fold] | geoMFI [1] | fold change to WT [2] [fold] | geoMFI [2] | binding result [3] | binding result [4] | binding result [5] | binding result [6] | binding result [7] | binding result [8] | Kd [9] [µM] | Kd [10] [µM] | Kd [11] [µM] |
| --- | --- | --- | --- | --- | --- | --- | --- | --- | --- | --- | --- | --- | --- |
| B1 | 20.8 | 34800 | 1.8 | 28.8 | – | – | – | – | – | – | – | – | – |
| B2 | – | – | – | – | no binding (tested: 2 µM) | no binding (tested: 2 µM) | no binding (tested: 2 µM) | no binding (tested: 2 µM) | no binding (tested: 2 µM) | – | – | – | – |
| B3 | – | – | – | – | – | no binding (tested: 2 µM) | – | – | no binding (tested: 2 µM) | no binding (tested: 2 µM) | 0.989 | 4.75 | 4.82 |

— US20200325209A1 (CSL, published 2020)
